Measured values published in patent publication US20040229250A1 (SHIRE HUMAN GENETIC THERAPIES, published 2004).

Key:
[1] = biological target: T1, Formylglycine Generating Enzyme (FGE) purified from bovine testis microsomes (reticuloplasm) (bovine, UniProt Q0P5L5 34-374, N-glycosylated (bound to Concanavalin A)); assay: affinity chromatography on peptide-derivatized Affigel 10, FGE activity from bovine testis
T1 construct: mature; Native enzyme at several stages of purification (microsome extract, MonoQ pool, ConA eluate); also called bovine FGE; FGE activity
T1 sequence (looked up): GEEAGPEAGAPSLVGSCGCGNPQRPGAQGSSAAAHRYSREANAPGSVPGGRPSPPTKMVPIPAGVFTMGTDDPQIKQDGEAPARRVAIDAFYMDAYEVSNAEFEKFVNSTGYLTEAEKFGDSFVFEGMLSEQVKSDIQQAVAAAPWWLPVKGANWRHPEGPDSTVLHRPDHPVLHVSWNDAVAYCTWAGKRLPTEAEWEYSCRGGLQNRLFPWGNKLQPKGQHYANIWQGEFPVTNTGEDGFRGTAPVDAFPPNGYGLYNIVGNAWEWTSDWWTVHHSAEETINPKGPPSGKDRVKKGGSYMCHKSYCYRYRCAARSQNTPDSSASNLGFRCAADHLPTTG
Description: (§1) For purification of FGE the soluble fraction (reticuloplasm) of bovine testis microsomes served as the starting material. The specific activity of FGE was 10-20 times higher than that in reticuloplasm from bovine pancreas microsomes (Fey et al., J. Biol. Chem., 2001, 276:47021-47028). Purification of FGE was achieved by a combination of four chromatographic steps. The first two steps were chromatography on a MonoQ anion exchanger and on Concanavalin A-Sepharose. At pH 8 the FGE activity bound to MonoQ and was eluted at 50-165 mM NaCl with 60-90% recovery. When this fraction was mixed with Concanavalin A-Sepharose, FGE was bound. 30-40% of the starting activity could be eluted with 0.5 M a-methyl mannoside. The two final purification steps were chromatography on affinity matrices derivatized with 16mer peptides. The first affinity matrix was Affigel 10 substituted with a variant of the ASA65-80 peptide, in which residues Cys69, Pro7l and Arg73, critical for FGly formation, were scrambled (scrambled peptide […] -SEQ ID NO:34). […] Chromatography on the scrambled peptide affinity matrix removed peptide binding proteins including chaperones of the endoplasmic reticulum. The second affinity matrix was Affigel 10 substituted with a variant of the ASA65-80 peptide, in which the Cys69 was replaced by a serine (Ser69 peptide […]-SEQ ID NO:35).

[2] = biological target: T1, Formylglycine Generating Enzyme (FGE) …; assay: affinity chromatography, peptide on Affigel 10, FGE from bovine testis
Description: as §1

[3] = biological target: T2, 23mer peptide P23 (MTDFYVPVSLCTPSRAALLTGRS)
T2 chain: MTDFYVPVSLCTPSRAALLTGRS

B1: scrambled peptide PVSLPTRSCAALLTGR (peptide)
peptide: PVSLPTRSCAALLTGR
notes: also called scrambled oligopeptide; variant of the ASA65-80 peptide in which residues Cys69, Pro71 and Arg73 were scrambled
Question: Does B1 bind [1]?
Answer: Result: no binding

B2: wildtype ASA65-80 peptide (synthetic 16mer corresponding to arylsulfatase A residues 65-80) (peptide)
peptide: PVSLCTPSRAALLTGR
notes: They follow from P23 and from the Ser69 peptide, which is the Cys69 to Ser variant
Question: Does B2 bind [2]?
Answer: Result: binds

B3: Ser69 peptide PVSLSTPSRAALLTGR (peptide)
peptide: PVSLSTPSRAALLTGR
notes: also called Ser69 oligopeptide; variant of the ASA65-80 peptide in which Cys69 was replaced by a serine
Question: Does B3 bind [2]?
Answer: Result: binds

B4: Formylglycine Generating Enzyme (FGE) purified from bovine testis microsomes (reticuloplasm) (protein)
chain: T1 sequence (looked up)
Question: How did the “conversion of P23 into a FGly containing derivative (MALDI-TOF)” value [3] turn out when B4 was run?
Answer: Its value is “converted up to 95% of the peptide into a FGly containing derivative”.

Question: And the km [3]?
Answer: The km was “The km for P23 was 13 nM”.
